Experimental data reported in EP3366704A1 (Affimed GmbH, dated 2018).

B1: scFv B05 (anti-HLA-A2^MMP1-003 single chain Fv) (scFv)
scFv: QVQLVQSGAEAKKPGESLRISCRASGYMFSTFWIGWVRQMPGKGLEWVASIYPGDSNTIYSPSFQGQVTISADKSINTTYLQWSGLKASDTATYYCAKIRDGYSYDAFDLWGQGTMVTVSSGGSGGSGGSGGSGGSGGSQSALTQPASVSGSPGQSITISCTGTSSDVGGYNYVSWYQQHPGKAPKLMIYDVSNRPSGVSNRFSGSKSGNTASLTISGLQAEDEADYYCSSYTSSSTLAYVFGTGTKLTVLAAAGSEQKLISEEDLNSHHHHHH
notes: also called B05 scFv; scFv_202.S
B2: TandAbCD16A 4 (anti-HLA-A2^MMP1-003/CD16A tandem diabody, target domain B05, variant 4) (bispecific antibody)
chain: QVQLVQSGAEAKKPGESLRISCRASGYMFSTFWIGWVRQMPGKGLEWVASIYPGDSNTIYSPSFQGQVTISADKSINTTYLQWSGLKASDTATYYCAKIRDGYSYDAFDLWGQGTMVTVSSGGSGGSGGSSYVLTQPSSVSVAPGQTATISCGGHNIGSKNVHWYQQRPGQSPVLVIYQDNKRPSGIPERFSGSNSGNTATLTISGTQAMDEADYYCQVWDNYSVLFGGGTKLTVLGGSGGSQVQLVQSGAEVKKPGESLKVSCKASGYTFTSYYMHWVRQAPGQGLEWMGAIEPMYGSTSYAQKFQGRVTMTRDTSTSTVYMELSSLRSEDTAVYYCARGSAYYYDFADYWGQGTLVTVSSGGSGGSGGSQSALTQPASVSGSPGQSITISCTGTSSDVGGYNYVSWYQQHPGKAPKLMIYDVSNRPSGVSNRFSGSKSGNTASLTISGLQAEDEADYYCSSYTSSSTLAYVFGTGTKLTVLAAAGSHHHHHH
notes: Non-covalent homodimer; C-terminal 6xHis tag
B3: TandAbCD16A 3 (anti-HLA-A2^MMP1-003/CD16A tandem diabody, target domain A02, variant 4) (bispecific antibody)
chain: EVQLVESGGGVVQPGRSLRLSCAASGFTFSSYAMHWVRQAPGKGLEWVAVISYDGSNKYYADSVKGRFTISRDNSKNTLYLQMNSLRTEDTAVYYCARDGGYYHYGLDVWGQGTTVTVSSGGSGGSGGSSYVLTQPSSVSVAPGQTATISCGGHNIGSKNVHWYQQRPGQSPVLVIYQDNKRPSGIPERFSGSNSGNTATLTISGTQAMDEADYYCQVWDNYSVLFGGGTKLTVLGGSGGSQVQLVQSGAEVKKPGESLKVSCKASGYTFTSYYMHWVRQAPGQGLEWMGAIEPMYGSTSYAQKFQGRVTMTRDTSTSTVYMELSSLRSEDTAVYYCARGSAYYYDFADYWGQGTLVTVSSGGSGGSGGSSYELTQPPSVSVSPGQTASITCSGDKLGDKYASWYQRKPGQSPVLLIYQDAKRPSGIPERFSGSNSGNTATLTISGTQAMDEADYYCQAWDSSTGVFGGGTKLTVLAAAGSHHHHHH
notes: Non-covalent homodimer; Variant 4: VH(A02)-L1-VL(CD16A)-L2-VH(CD16A)-L3-VL(A02); C-terminal 6xHis tag
B4: TandAbCD3 2 (anti-HLA-A2^MMP1-003/CD3 tandem diabody, target domain A02) (bispecific antibody)
chain: DIQMTQSPSSLSASVGDRVTITCRSSTGAVTTSNYANWVQQKPGKAPKALIGGTNKRAPGVPSRFSGSLIGDKATLTISSLQPEDFATYYCALWYSNLWVFGQGTKVEIKGGSGGSEVQLVESGGGVVQPGRSLRLSCAASGFTFSSYAMHWVRQAPGKGLEWVAVISYDGSNKYYADSVKGRFTISRDNSKNTLYLQMNSLRTEDTAVYYCARDGGYYHYGLDVWGQGTTVTVSSGGSGSYELTQPPSVSVSPGQTASITCSGDKLGDKYASWYQRKPGQSPVLLIYQDAKRPSGIPERFSGSNSGNTATLTISGTQAMDEADYYCQAWDSSTGVFGGGTKLTVLGGSGGSEVQLVESGGGLVQPGGSLRLSCAASGFTFSTYAMNWVRQAPGKGLEWVGRIRSKYNNYATYYADSVKDRFTISRDDSKNSLYLQMNSLKTEDTAVYYCARHGNFGNSYVSYFAYWGQGTLVTVSSAAAGSHHHHHH
notes: Non-covalent homodimer; C-terminal 6xHis tag; also called TandAbCD3 2 T717; T717
B5: scFv A02 (anti-HLA-A2^MMP1-003 single chain Fv) (scFv)
scFv: EVQLVESGGGVVQPGRSLRLSCAASGFTFSSYAMHWVRQAPGKGLEWVAVISYDGSNKYYADSVKGRFTISRDNSKNTLYLQMNSLRTEDTAVYYCARDGGYYHYGLDVWGQGTTVTVSSGGSGGSGGSGGSGGSGGSSYELTQPPSVSVSPGQTASITCSGDKLGDKYASWYQRKPGQSPVLLIYQDAKRPSGIPERFSGSNSGNTATLTISGTQAMDEADYYCQAWDSSTGVFGGGTKLTVLAAAGSEQKLISEEDLNSHHHHHH
notes: also called A02 scFv; scFv_203.S
B6: TandAbCD16A 1 (anti-HLA-A2^MMP1-003/CD16A tandem diabody, target domain A02, variant 2) (bispecific antibody)
chain: QVQLVQSGAEVKKPGESLKVSCKASGYTFTSYYMHWVRQAPGQGLEWMGAIEPMYGSTSYAQKFQGRVTMTRDTSTSTVYMELSSLRSEDTAVYYCARGSAYYYDFADYWGQGTLVTVSSGGSGGSGGSSYELTQPPSVSVSPGQTASITCSGDKLGDKYASWYQRKPGQSPVLLIYQDAKRPSGIPERFSGSNSGNTATLTISGTQAMDEADYYCQAWDSSTGVFGGGTKLTVLGGSGGSEVQLVESGGGVVQPGRSLRLSCAASGFTFSSYAMHWVRQAPGKGLEWVAVISYDGSNKYYADSVKGRFTISRDNSKNTLYLQMNSLRTEDTAVYYCARDGGYYHYGLDVWGQGTTVTVSSGGSGGSGGSSYVLTQPSSVSVAPGQTATISCGGHNIGSKNVHWYQQRPGQSPVLVIYQDNKRPSGIPERFSGSNSGNTATLTISGTQAMDEADYYCQVWDNYSVLFGGGTKLTVLAAAGSHHHHHH
notes: Non-covalent homodimer; Variant 2: VH(CD16A)-L1-VL(A02)-L2-VH(A02)-L3-VL(CD16A); C-terminal 6xHis tag
B7: TandAbCD3 1 (anti-HLA-A2^MMP1-003/CD3 tandem diabody, target domain B05) (bispecific antibody)
chain: DIQMTQSPSSLSASVGDRVTITCRSSTGAVTTSNYANWVQQKPGKAPKALIGGTNKRAPGVPSRFSGSLIGDKATLTISSLQPEDFATYYCALWYSNLWVFGQGTKVEIKGGSGGSQVQLVQSGAEAKKPGESLRISCRASGYMFSTFWIGWVRQMPGKGLEWVASIYPGDSNTIYSPSFQGQVTISADKSINTTYLQWSGLKASDTATYYCAKIRDGYSYDAFDLWGQGTMVTVSSGGSGQSALTQPASVSGSPGQSITISCTGTSSDVGGYNYVSWYQQHPGKAPKLMIYDVSNRPSGVSNRFSGSKSGNTASLTISGLQAEDEADYYCSSYTSSSTLAYVFGTGTKLTVLGGSGGSEVQLVESGGGLVQPGGSLRLSCAASGFTFSTYAMNWVRQAPGKGLEWVGRIRSKYNNYATYYADSVKDRFTISRDDSKNSLYLQMNSLKTEDTAVYYCARHGNFGNSYVSYFAYWGQGTLVTVSSAAAGSHHHHHH
notes: Non-covalent homodimer of two identical polypeptides; Constructs carry a C-terminal 6xHis tag and an N-terminal signal peptide; also called TandAbCD3 1 T714; TandAb 1
B8: TandAbCD16A 2 (anti-HLA-A2^MMP1-003/CD16A tandem diabody, target domain B05, variant 2) (bispecific antibody)
chain: QVQLVQSGAEVKKPGESLKVSCKASGYTFTSYYMHWVRQAPGQGLEWMGAIEPMYGSTSYAQKFQGRVTMTRDTSTSTVYMELSSLRSEDTAVYYCARGSAYYYDFADYWGQGTLVTVSSGGSGGSGGSQSALTQPASVSGSPGQSITISCTGTSSDVGGYNYVSWYQQHPGKAPKLMIYDVSNRPSGVSNRFSGSKSGNTASLTISGLQAEDEADYYCSSYTSSSTLAYVFGTGTKLTVLGGSGGSQVQLVQSGAEAKKPGESLRISCRASGYMFSTFWIGWVRQMPGKGLEWVASIYPGDSNTIYSPSFQGQVTISADKSINTTYLQWSGLKASDTATYYCAKIRDGYSYDAFDLWGQGTMVTVSSGGSGGSGGSSYVLTQPSSVSVAPGQTATISCGGHNIGSKNVHWYQQRPGQSPVLVIYQDNKRPSGIPERFSGSNSGNTATLTISGTQAMDEADYYCQVWDNYSVLFGGGTKLTVLAAAGSHHHHHH
notes: as for B2

How the values were obtained:
[1] = biological target: T1, cynomolgus CD3 (on HSC-F cells) (cynomolgus, UniProt Q95LI5 22-198); experiment: flow cytometry on cynomolgus CD3+ HSC-F cells, on ice
T1 construct: whole, on cells; CD3 is a complex of several chains; also called Cyno CD3^+ HSC-F
T1 sequence (Q95LI5 22-198): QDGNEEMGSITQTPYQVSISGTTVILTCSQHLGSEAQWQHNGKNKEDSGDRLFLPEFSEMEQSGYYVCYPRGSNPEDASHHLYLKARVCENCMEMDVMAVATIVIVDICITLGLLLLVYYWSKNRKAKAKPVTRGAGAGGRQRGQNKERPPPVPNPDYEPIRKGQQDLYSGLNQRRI

[2] = biological target: T2, human CD3 (on Jurkat cells or primary human T-cells) (human, UniProt P07766 23-207); experiment: flow cytometry on human CD3+ Jurkat cells, on ice
T2 construct: whole, on cells; CD3 is a complex of several chains; also called Human CD3^+ Jurkat; Human CD3^+ primary T-cells
T2 sequence (P07766 23-207): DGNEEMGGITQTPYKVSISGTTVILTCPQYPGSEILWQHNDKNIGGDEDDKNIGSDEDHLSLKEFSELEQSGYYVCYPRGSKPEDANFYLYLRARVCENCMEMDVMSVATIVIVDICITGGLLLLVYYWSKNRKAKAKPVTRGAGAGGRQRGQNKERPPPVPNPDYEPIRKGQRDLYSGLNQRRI

[3] = biological target: T3, MMP1-003 peptide/HLA-A2 complex (on MMP1-003 peptide-pulsed T2 cells or HLA-A2+/MMP1+ tumor cells) (human); experiment: flow cytometry on MMP1-003 peptide-pulsed T2 cells, mean of two experiments
T3 construct: whole, on cells; T2 cells were pulsed with 100 uM peptide for 15 h at 37 C; also called MMP1/HLA-A2; HLA-A2^MMP1-003

[4] = biological target: T3, MMP1-003 peptide/HLA-A2 complex (on …); experiment: cell-based or functional assay
[5] = biological target: T4, CD16A (FcgammaRIIIA) on primary human NK-cells (human, UniProt P08637 17-254); experiment: flow cytometry on primary human NK-cells, on ice, one-site binding fit, mean of two experiments
T4 construct: whole, on cells; also called CD16^+ NK-cells; CD16A^+ cells
T4 sequence (P08637 17-254): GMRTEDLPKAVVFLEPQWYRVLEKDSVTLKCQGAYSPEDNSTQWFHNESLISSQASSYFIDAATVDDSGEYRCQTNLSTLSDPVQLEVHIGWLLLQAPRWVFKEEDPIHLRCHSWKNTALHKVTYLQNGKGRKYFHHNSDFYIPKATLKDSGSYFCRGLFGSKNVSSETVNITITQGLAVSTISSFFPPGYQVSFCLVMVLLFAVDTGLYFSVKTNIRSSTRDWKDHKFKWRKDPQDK

[6] = biological target: T3, MMP1-003 peptide/HLA-A2 complex (on …); experiment: cell-based or functional assay; remark: listed apart in the source
[7] = biological target: T3, MMP1-003 peptide/HLA-A2 complex (on …); experiment: cell-based or functional assay; remark: listed apart in the source
[8] = biological target: T1, cynomolgus CD3 (on HSC-F cells); experiment: flow cytometry on cynomolgus CD3+ HSC-F cells, on ice, one-site binding fit, mean of 2 experiments
[9] = biological target: T3, MMP1-003 peptide/HLA-A2 complex (on …); experiment: cell-based or functional assay; remark: listed apart in the source
[10] = biological target: T2, human CD3 (on Jurkat cells or primary …); experiment: flow cytometry on human CD3+ Jurkat cells, on ice, one-site binding fit, mean of 2 experiments
[11] = biological target: T3, MMP1-003 peptide/HLA-A2 complex (on …); experiment: flow cytometry on MMP1-003 peptide-pulsed T2 cells
[12] = biological target: T5, HLA-A2 on non-pulsed T2 cells (no peptide added) (human); experiment: flow cytometry on non-pulsed T2 cells, mean of two experiments
T5 construct: whole, on cells

[13] = biological target: T2, human CD3 (on Jurkat cells or primary …); experiment: flow cytometry on human CD3+ primary T-cells, on ice, one-site binding fit, mean of 2 experiments

Binder | Kd [3] [nM] | Mean EC50 of target cell lysis, 4 h calcein-release assay, B-CPAP (HLA-A2+/MMP1+), human NK-cells E:T 5:1 [4] [nM] | Mean EC50 of target cell lysis, 4 h calcein-release assay, SW-982 (HLA-A2+/MMP1+), human NK-cells E:T 5:1 [4] [nM] | Kd [5] [nM] | Mean EC50 of target cell lysis, 4 h calcein-release assay, MMP1-003-pulsed T2 cells, human NK-cells E:T 5:1 [6] [nM] | further results
B1 | 616 | – | – | – | – | binding result [1]: no binding; binding result [2]: no binding
B2 | – | 4.8 | 4.67 | 5.3 | 0.0088 | –
B3 | – | 0.996 | 1.16 | 3.1 | 0.0057 | –
B4 | 39.2 | – | – | – | – | EC50 of target cell lysis, 4 h calcein-release cytotoxicity assay, MMP1-003-pulsed T2 cells, human T-cells E:T 25:1 [7]: 0.0009 nM; Kd [8]: 2.8 nM; Mean EC50 of target cell lysis, 4 h calcein-release assay, B-CPAP (HLA-A2+/MMP1+), human T-cells E:T 25:1 [9]: 0.0669 nM; Mean EC50 of target cell lysis, 4 h calcein-release assay, SW-982 (HLA-A2+/MMP1+), human T-cells E:T 25:1 [9]: 0.0302 nM; Kd [10]: 3.6 nM; fold higher apparent affinity than the corresponding scFv A02 [11]: > 2 fold; Kd [12]: > 500 nM; Kd [13]: 2.2 nM
B5 | 108 | – | – | – | – | binding result [1]: no binding; binding result [2]: no binding
B6 | – | 2.61 | 4.29 | 5.1 | 0.0147 | –
B7 | 3 | – | – | – | – | EC50 of target cell lysis, 4 h calcein-release cytotoxicity assay, MMP1-003-pulsed T2 cells, human T-cells E:T 25:1 [7]: 0.0007 nM; Kd [8]: 1.3 nM; Mean EC50 of target cell lysis, 4 h calcein-release assay, B-CPAP (HLA-A2+/MMP1+), human T-cells E:T 25:1 [9]: 0.237 nM; Mean EC50 of target cell lysis, 4 h calcein-release assay, SW-982 (HLA-A2+/MMP1+), human T-cells E:T 25:1 [9]: 0.156 nM; Kd [10]: 1.1 nM; fold higher apparent affinity relative to the B05 single chain Fv (scFv) [11]: > 200 fold; Kd [13]: 1.7 nM
B8 | – | 1.69 | 2.86 | 3.7 | 0.0209 | –
